In paper PMC9284731:

Columns and labels:
[1] = test system: RBP10 fragment with no residues C-terminal to the RRM (Trypanosoma brucei); assay: EMSA; settings: binding buffer for gel shifts not in material (only protein buffers: elution 50 mM NaH2PO4, 300 mM NaCl, 250 mM imidazole, pH 8.0); sometimes dialyzed to 10 mM …; scale: affinity relative to P1
[2] = test system: RBP10 fragment with only 10 residues C-terminal to the RRM (Trypanosoma brucei); assay: EMSA; settings: binding buffer for gel shifts not in material (only protein buffers: elution 50 mM NaH2PO4, 300 mM NaCl, 250 mM imidazole, pH 8.0); sometimes dialyzed to 10 mM …; scale: affinity relative to P1

“probe with two copies of UACUCUCU (mutant)” was tested, and the binding signal [1] was less than 0.1 and the binding signal [2] was less than 0.1.

probe with two copies of UA(U)6 gave a binding signal [1] of less than 0.1 and a binding signal [2] of less than 0.1.
